T1: Recombinant DR3-Fc, Q93038
T1 chain: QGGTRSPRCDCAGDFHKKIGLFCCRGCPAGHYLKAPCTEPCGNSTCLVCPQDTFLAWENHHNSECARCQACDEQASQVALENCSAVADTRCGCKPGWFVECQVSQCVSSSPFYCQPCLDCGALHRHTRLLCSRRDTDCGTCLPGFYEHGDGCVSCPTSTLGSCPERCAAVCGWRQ


Tests used:
[1] = target: T1, Recombinant DR3-Fc, Q93038; experiment: ELISA; conditions: chain shown with the change; value read at the highest DR3-Fc concentration point, about 1000 nM; parent: est. 130; read off a plot
[2] = target: Fc-His-TL1A (TL1W61) (human); experiment: ELISA; reversed format: TL1A molecules immobilised, DR3 titrated
[3] = glycan lost; control: wild type
[4] = recombinant expression, Expi293; conditions: glycan lost; control: wild type

Row | Binder | response (x 10^6 chemiluminescence) [1] | also measured
1 | His-TL1A (TL1W2), O95150 C162L; C202L (protein) VYAPLRADGDKPRAHLTVVRQTPTQHFKNQFPALHWEHELGLAFTKNRMNYTNKFLLIPESGDYFIYSQVTFRGMTSELSEIRQAGRPNKPDSITVVITKVTDSYPEPTQLLMGTKSVLEVGSNWFQPIYLGAMFSLQEGDKLMVNVSDISLVDYTKEDKTFFGAFLL | 21 | –
2 | His-TL1A (TL1W2), O95150 C162S (protein) MAEDLGLSFGETASVEMLPEHGSCRPKARSSSARWALTCCLVLLPFLAGLTTYLLVSQLRAQGEACVQFQALKGQEFAPSHQQVYAPLRADGDKPRAHLTVVRQTPTQHFKNQFPALHWEHELGLAFTKNRMNYTNKFLLIPESGDYFIYSQVTFRGMTSESSEIRQAGRPNKPDSITVVITKVTDSYPEPTQLLMGTKSVCEVGSNWFQPIYLGAMFSLQEGDKLMVNVSDISLVDYTKEDKTFFGAFLL | 10 | –
3 | His-TL1A (TL1W2), O95150 C202S (protein) MAEDLGLSFGETASVEMLPEHGSCRPKARSSSARWALTCCLVLLPFLAGLTTYLLVSQLRAQGEACVQFQALKGQEFAPSHQQVYAPLRADGDKPRAHLTVVRQTPTQHFKNQFPALHWEHELGLAFTKNRMNYTNKFLLIPESGDYFIYSQVTFRGMTSECSEIRQAGRPNKPDSITVVITKVTDSYPEPTQLLMGTKSVSEVGSNWFQPIYLGAMFSLQEGDKLMVNVSDISLVDYTKEDKTFFGAFLL | 9 | –
4 | Recombinant DR3-Fc (Fc fusion) QGGTRSPRCDCAGDFHKKIGLFCCRGCPAGHYLKAPCTEPCGNSTCLVCPQDTFLAWENHHNSECARCQACDEQASQVALENCSAVADTRCGCKPGWFVECQVSQCVSSSPFYCQPCLDCGALHRHTRLLCSRRDTDCGTCLPGFYEHGDGCVSCPTSTLGSCPERCAAVCGWRQ | – | EC50 [2]: 2.2 nM
5 | TL1A (TNFSF15): N133Q (protein) parent chain: MAEDLGLSFGETASVEMLPEHGSCRPKARSSSARWALTCCLVLLPFLAGLTTYLLVSQLRAQGEACVQFQALKGQEFAPSHQQVYAPLRADGDKPRAHLTVVRQTPTQHFKNQFPALHWEHELGLAFTKNRMNYTNKFLLIPESGDYFIYSQVTFRGMTSECSEIRQAGRPNKPDSITVVITKVTDSYPEPTQLLMGTKSVCEVGSNWFQPIYLGAMFSLQEGDKLMVNVSDISLVDYTKEDKTFFGAFLL | – | other: solubility [3]: no change; expression_or_secretion [4]: no change
